Patent publication US20090004111

Biological target: NS5A domain I-Δh (HCV NS5A N-terminal domain) (Hepatitis C virus) (UniProt Q9WMX2)
Test: EMSA
Conditions: approximate Kd, non-specific RNA sequence; text says NS5A, construct taken as the purified domain I-Δh

Sequence of UniProt Q9WMX2 (Q9WMX2 1997-2188, tags or fused parts left off): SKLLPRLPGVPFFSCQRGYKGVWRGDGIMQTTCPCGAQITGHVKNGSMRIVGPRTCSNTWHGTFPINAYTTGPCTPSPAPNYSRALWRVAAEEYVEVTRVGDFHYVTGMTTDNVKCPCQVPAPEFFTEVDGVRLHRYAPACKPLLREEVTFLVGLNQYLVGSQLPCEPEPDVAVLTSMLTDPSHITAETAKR

## non-specific ssRNA (plasmid polylinker transcript)
  Kd: 10 nM
